Changes are numbered by the printed parent chain. In names and notes the source's numbering stands. Values belong to the binder of their own block, whether it stands above or below them.
Target: protein phosphatase PP1 (endogenous), P36873
Test: EGFP trap, immunoblotting, densitometric analysis
Conditions: chain shown with the change; non-synchronized HEK293T cells; three independent experiments; parent: est. 1.0; read off a plot

Sequence of protein phosphatase PP1 (endogenous), P36873 (P36873 whole entry): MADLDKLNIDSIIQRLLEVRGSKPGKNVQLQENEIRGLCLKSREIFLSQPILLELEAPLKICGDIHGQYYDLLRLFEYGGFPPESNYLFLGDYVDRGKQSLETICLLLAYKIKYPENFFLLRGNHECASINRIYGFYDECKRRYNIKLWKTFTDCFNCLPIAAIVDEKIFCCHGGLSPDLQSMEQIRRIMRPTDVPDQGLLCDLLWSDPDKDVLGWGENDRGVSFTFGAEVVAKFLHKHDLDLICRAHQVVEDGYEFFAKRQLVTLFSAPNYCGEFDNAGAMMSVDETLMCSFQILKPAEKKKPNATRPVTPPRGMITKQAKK

ratio to parent: 0.19
B1: EGFP-tagged RepoMan-WT, Q69YH5 S400D; T412D; T419D (protein)
chain: MDANSKDKPPETKESAMNNAGNASFILGTGKIVTPQKHAELPPNPCTPDTFKSPLNFSTVTVEQLGITPESFVRNSAGKSSSYLKKCRRRSAVGARGSPETNHLIRFIARQQNIKNARKSPLAQDSPSQGSPALYRNVNTLRERISAFQSAFHSIKENEKMTGCLEFSEAGKESEMTDLTRKEGLSACQQSGFPAVLSSKRRRISYQRDSDENLTDAEGKVIGLQIFNIDTDRACAVETSVDLSEISSKLGSTQSGFLVEESLPLSELTETSNALKVADCVVGKGSSDAVSPDTFTAEVSSDAVPDVRSPATPACRRDLPTPKTFVLRSVLKKPSVKMCLESLQEHCNNLYDDDGTHPSLISNLPNCCKEKEAEDEENFEAPAFLNMRKRKRVTFGEDLDPEVFDESLPANDPLRKGGDPVCKKDFSGLSSLLLEQSPVPEPLPQPDFDDKGENLENIEPLQVSFAVLSSPNKSSISETLSGTDTFSSSNNHEKISSPKVGRITRTSNRRNQLVSVVEESVCNLLNTEVQPCKEKKINRRKSQETKCTKRALPKKSQVLKSCRKKKGKGKKSVQKSLYGERDIASKKPLLSPIPELPEVPEMTPSIPSIRRLGSGYFSSNGKLEEVKTPKNPVKRKDLLRHDPDLHMHQGYDKYDVSEFCSYIKSSSSLGNATSDEDPNTNIMNINENKNIPKAKNKSESENEPKAGTDSPVSCASVTEERVASDSPKPALTLQQGQEFSAGGQNAENLCQFFKISPDLNIKCERKDDFLGAAEGKLQCNRLMPNSQKDCHCLGDVLIENTKESKSQSEDLGRKPMESSSVVSCRDRKDRRRSMCYSDGRSLHLEKNGNHTPSSSVGSSVEISLENSELFKDLSDAIEQTFQRRNSETKVRRSTRLQKDLENEGLVWISLPLPSTSQKAKRRTICTFDSSGFESMSPIKETVSSRQKPQMAPPVSDPENSQGPAAGSSDEPGKRRKSFCISTLANTKATSQFKGYRRRSSLNGKGESSLTALERIEHNGERKQ

ratio to parent: 0.43
B2: EGFP-tagged RepoMan-WT, Q69YH5 T412D (protein)
chain: B1 chain with D400S, D419T

From publication PMC4703885
